Results published in US20250179550A1, “Methods to imbue polymeric materials with new structures and functions” (The Regents of the University of California, priority 2022, published 2025).

B1: MicD-F: constitutively activated cyclodehydratase, leader peptide fused to N-terminus of MicD, SEQ ID NO: 7 (protein, listed as Microcystis aeruginosa)
chain: MSHHHHHHDYDENLYFQGSRLTAGQLSSQLAELSEEALGDAGAGAGAGAGAKLMQSTPLLQIQPHFHVEVIEPKQVYLLGEQANYALTGQLYCQILPLLDGQHSREQIVEKLDGEVPSEYIDYVLDRLAEKGYLTEAAPELSSEVAAFWSELGIAPPVAAEALRQSVTLTPVGNISEVTVAALTTALRDIGISVQTPTEAGSPTALNVVLTDDYLQPELAKINKQALESQQTWLLVKPVGSVLWLGPVFVPGKTGCWDCLAHRLRGNREVEASVLQQKQAQQQRNGQSGSVIGCLPTARATLPSTLQTGLQFAATEIAKWIVKHHVKATAPGTVFFPTLDGKIITFNHTVIDLKSHVLVRRSQCPSCGDRQILHRQGFEPVKLVSRRKHFTHDGGHRAFTPEQTVQKYQHLVSPITGVVTELVRLTDPANPLVHTYKAGHAFGSATTLRGLRNTLKYKSSGKGKTDIQSRASGLCEAIERYSGIFQGDEPRKRATLAELGDLALHPESLLYFSNTQYANREELNAQGSAAAYRWIPNRFDVSQAIDWTPVWSLTEQKHKYVPTAFCYYGYPLPEEQRFCKADSNGNAAGNTLEEAILQGFLELVERDSIAMWWYNRIRRPAVDLSTFDEPYFVDLQQFYQQQNRELWVLDVTADLGIPAFAGFSRRTVGTSERISIGFGAHLDPTIAILRALTEVSQVGLELDKIPDDKLDGESKDWMLNVTVENHPWLAPDPSVPMKTASDYPKRWSDDIHTDVMNCVKTAQTAGLEVMVLDQTRPDIGLNVVKVIIPGMRTFWTRFGQGRLYDIPVKLGWLDAPLAEEELNQTNIPF
B2: RopC: Rop variant with loop sequence GGGGMCAYDG, SEQ ID NO: 3 (protein, listed as Escherichia coli)
chain: MDYKDDDDKMTKQEKTALNMARFIRSQTLTLLEKLNELGGGGMCAYDGDEQADICESLHDHADELYRSCLARFGDDGENLHHHHHH
B3: RopM: Rop variant with loop sequence GGMCAYDGGG, SEQ ID NO: 2 (protein, listed as Escherichia coli)
chain: MDYKDDDDKMTKQEKTALNMARFIRSQTLTLLEKLNELGGMCAYDGGGDEQADICESLHDHADELYRSCLARFGDDGENLHHHHHH
B4: RopN: Rop variant with loop sequence MCAYDGGGGG, SEQ ID NO: 1 (protein, listed as Escherichia coli)
chain: MDYKDDDDKMTKQEKTALNMARFIRSQTLTLLEKLNELMCAYDGGGGGDEQADICESLHDHADELYRSCLARFGDDGENLHHHHHH
B5: mCherry174+ (protein, listed as Discosoma sp.)
chain: MDYKDDDDKMVSKGEEDNMAIIKEFMRFKVHMEGSVNGHEFEIEGEGEGRPYEGTQTAKLKVTKGGPLPFAWDILSPQFMYGSKAYVKHPADIPDYLKLSFPEGFKWERVMNFEDGGVVTVTQDSSLQDGEFIYKVKLRGTNFPSDGPVMQKKTMGWEASSERMYPEDGALKGEIKQRLKLKDMCAYDGGGHYDAEVKTTYKAKKPVQLPGAYNVNIKLDITSHNEDYTIVEQYERAEGRHSTGGMDELYKHHHHHH
B6: mCherry192+ (protein, listed as Discosoma sp.)
chain: MDYKDDDDKMVSKGEEDNMAIIKEFMRFKVHMEGSVNGHEFEIEGEGEGRPYEGTQTAKLKVTKGGPLPFAWDILSPQFMYGSKAYVKHPADIPDYLKLSFPEGFKWERVMNFEDGGVVTVTQDSSLQDGEFIYKVKLRGTNFPSDGPVMQKKTMGWEASSERMYPEDGALKGEIKQRLKLKDGGHYDAEVKTTYKAKKPVMCAYDGQLPGAYNVNIKLDITSHNEDYTIVEQYERAEGRHSTGGMDELYKHHHHHH

Assays:
[1] = Temperature stability of MicD-F; format: physicochemical
MicD-F and ArtGox = experiment: Reaction of protein substrates with MicD-F and ArtGox in tandem, LC-MS deconvoluted mass; format: biochemical, Microcystis aeruginosa; Arthrospira platensis; settings: 50 mol % MicD-F, 80 mol % ArtGox, 24 hours, pH 9.0, 37° C.
Protocol: Reactions of proteins with MicD-F and ArtGox were performed in the manner described above with minor modifications. The substrate stock was a 1 mM solution of protein in 20 mM HEPES, 150 mM NaCl, 1 mM TCEP, pH 7.4. Reactions were carried out at either 25° C. or 37° C. as indicated.
(§1) Unprocessed reaction mixture (1 μL) was used for LC-MS analysis which was performed on an Agilent 1290 Infinity II HPLC connected to an Agilent 6530B QTOF AJS-ESI. The mobile phase for LC-MS was water and acetonitrile with 0.1% (v/v) formic acid and a flow rate of 0.4 mL/min. Each sample was injected onto a Poroshell 300SB-C8 column (2.1×75 mm, 5-Micron, room temperature, Agilent) using a linear gradient from 5 to 55% acetonitrile over 8 minutes after an initial hold at 5% acetonitrile for 2 minutes (0.4 mL/min). The following parameters were used during acquisition: Fragmentor voltage 225 V, gas temperature 300° C., gas flow 10 L/min, sheath gas temperature 350° C., sheath gas flow 11 L/min, nebulizer pressure 35 psi, skimmer voltage 65 V, Vcap 5000 V, 1 spectra/s. Intact protein masses were obtained via deconvolution using the Maximum Entropy algorithm in Mass Hunter Bioconfirm (V10, Agilent).

[2] = Analytical size-exclusion chromatography of Rop variants; format: physicochemical; settings: 50 μM
Protocol: To assess the homogeneity of isolated Rop variants, a solution of each protein was prepared (250 μg at 50 μM) in running buffer (10 mM phosphate, 100 mM NaCl, 150 µM TCEP, pH 7.0). A Superdex® 75 Increase 10/300 GL column (stored and operated at 4° C.) was washed with 2 column volumes (CV) of degassed and sterile filtered MilliQ water. The column was then equilibrated in running buffer for 2 CV. Each sample (500 μL) was applied to a 500 μL sample loop. The sample loop was washed with 2 mL of running buffer at 0.8 mL/min to load the sample onto the column. The sample was then eluted from the column by flowing running buffer at 0.8 mL/min for 1.30 CV. To assess column performance, a gel filtration standard (Bio-Rad Laboratories, Hercules, CA, catalog number 151-1901) containing 670 kDa, 158 kDa, 44 kDa, 17 kDa, and 1.35 kDa standards was used according to the manufacturer's instructions.

[3] = Circular dichroism of Rop variants (wavelength scans and temperature melts); format: physicochemical; settings: CD at 222 nm; for TM (melting temperature): 20 μM, 10 mM phosphate, 100 mM NaCl, 150 μM TCEP, pH 7.0
Protocol: RopN, RopM, and RopC were exchanged into CD buffer (10 mM phosphate, 100 mM NaCl, 150 μM TCEP, pH 7.0) using Amicon Ultra-0.5 mL centrifugal filters (MilliporeSigma, Burlington, MA) with a 3 kDa molecular weight cut-off according to the manufacturer's instructions and then diluted with the same buffer to a concentration of 20 μM. For CD analysis each Rop variant was transferred to a 1 mm quartz cuvette. Wavelength and temperature dependent CD spectra were collected with an AVIV Biomedical, Inc. (Lakewood, NJ) Circular Dichroism Spectrometer Model 410. For wavelength-dependent spectra, initial scans were performed from 200 to 300 nm at 25° C. in 2 nm increments with an averaging time of 5 seconds. For temperature melt experiments, the signal was monitored at 222 nm with an averaging time of 5 seconds. Temperature melts were performed from 5 to 90° C. in 1° C. increments with equilibration for 2 minutes before each measurement. Following the temperature melt the sample was returned to 25° C. and the wavelength-dependent CD spectra was measured once more to assess the reversibility of the melt. Raw data (mdeg) were converted to molar ellipticity ([Θ], in deg*cm^2*dmol^−1) by
where M is the mean residual weight (116.00 g/mol for RopN, RopM, and RopC), L is the pathlength of the cuvette in centimeters, and C is the concentration of the sample in g/L.7 The melting temperature was determined by fitting the molar ellipticity as a function of temperature to a Boltzmann sigmoidal curve using GraphPad Prism (Version 7.04).
CD analysis of RopC-U and RopC-Z was performed as described for RopN, RopM, and RopC with the following modifications. Temperature melts were performed from 5 to 90° C. in 2.5° C. increments. Before measuring the temperature melt for RopC-Z, the protein was refolded by performing an initial melt from 5 to 90° C. in 2.5° C. increments as described.

MicD-F = experiment: Reaction of protein substrates (mCherry and Rop variants) with MicD-F, LC-MS deconvoluted mass; format: biochemical, Microcystis aeruginosa; settings: for cyclodehydration of Rop variants to thiazoline / cyclodehydration of mCherry variants to thiazoline (loss of water): 50 mol % MicD-F; for cyclodehydration of mCherry variants to thiazoline (loss of water): 24 hours
Protocol: Reactions of proteins with MicD-F were performed in the manner described above with minor modifications. Namely, the substrate stock was a 1 mM solution of protein in 20 mM HEPES, 150 mM NaCl, 1 mM TCEP, pH 7.4.
as §1

Molecule | highest temperature at which MicD-F remained stable [1] [°C] | conversion to the thiazole-modified protein (MicD-F and ArtGox) | migration / homogeneity on SEC [2] | unfolding behaviour in temperature melt [3] | TM (melting temperature) [3] [°C] | cyclodehydration of Rop variants to thiazoline (MicD-F; pH 9.0, 37° C., 16 h) | conversion of RopC into RopC-U (MicD-F; up to 50 μM MicD-F, 16 h, 25° C.) | cyclodehydration of mCherry variants to thiazoline (loss of water) (MicD-F; pH 9.0, 37° C.) | cyclodehydration of mCherry variants to thiazoline (loss of water) (MicD-F; pH 9.0, 42° C.)
B1 | 42 | – | – | – | – | – | – | – | –
B2 | – | complete conversion | discrete dimers | melted cooperatively and reversibly | 28 | clean conversion | minimal | – | –
B3 | – | – | discrete dimers | melted cooperatively and reversibly | 32 | reacted partially | – | – | –
B4 | – | – | heterogeneous mixture | melted non-cooperatively | 43 | unreactive | – | – | –
B5 | – | – | – | – | – | – | – | no evidence of cyclodehydration | no evidence of cyclodehydration
B6 | – | – | – | – | – | – | – | no evidence of cyclodehydration | no evidence of cyclodehydration
